Measured values taken from patent US20180193423A1 (LONGEVITY BIOTECH, published 2018).
Where no end group is shown, it is not given here. [ ]: non-standard residue; d: D form. APC = 3-aminopyrrolidine-4-carboxylic acid; ACPC = 2-aminocyclopentanecarboxylic acid; β3hQ = NC(=O)CC[C@H](N)CC(=O)O; β3hN = NC(=O)C[C@H](N)CC(=O)O; β3hL = CC(C)C[C@H](N)CC(=O)O; β3hK = NCCCC[C@H](N)CC(=O)O; β3hV = CC(C)[C@H](N)CC(=O)O; Aib = CC(C)(N)C(=O)O; βAla = NCCC(=O)O

T1: VPAC2 receptor (UniProt P41587 24-438, limits assumed)
T1 sequence (looked up): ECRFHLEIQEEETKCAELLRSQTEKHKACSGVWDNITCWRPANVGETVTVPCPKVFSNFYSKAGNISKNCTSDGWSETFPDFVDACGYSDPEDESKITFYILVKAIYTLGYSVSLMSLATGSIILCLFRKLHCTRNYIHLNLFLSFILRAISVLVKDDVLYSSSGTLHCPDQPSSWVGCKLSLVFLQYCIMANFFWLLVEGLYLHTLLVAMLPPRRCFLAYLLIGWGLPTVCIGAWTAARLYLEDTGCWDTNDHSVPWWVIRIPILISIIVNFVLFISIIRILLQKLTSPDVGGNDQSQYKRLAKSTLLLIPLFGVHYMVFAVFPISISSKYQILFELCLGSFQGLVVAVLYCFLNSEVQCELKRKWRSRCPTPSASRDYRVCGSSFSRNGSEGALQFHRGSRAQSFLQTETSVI

T2: VPAC1 receptor (UniProt P32241 31-457, limits assumed)
T2 sequence (looked up): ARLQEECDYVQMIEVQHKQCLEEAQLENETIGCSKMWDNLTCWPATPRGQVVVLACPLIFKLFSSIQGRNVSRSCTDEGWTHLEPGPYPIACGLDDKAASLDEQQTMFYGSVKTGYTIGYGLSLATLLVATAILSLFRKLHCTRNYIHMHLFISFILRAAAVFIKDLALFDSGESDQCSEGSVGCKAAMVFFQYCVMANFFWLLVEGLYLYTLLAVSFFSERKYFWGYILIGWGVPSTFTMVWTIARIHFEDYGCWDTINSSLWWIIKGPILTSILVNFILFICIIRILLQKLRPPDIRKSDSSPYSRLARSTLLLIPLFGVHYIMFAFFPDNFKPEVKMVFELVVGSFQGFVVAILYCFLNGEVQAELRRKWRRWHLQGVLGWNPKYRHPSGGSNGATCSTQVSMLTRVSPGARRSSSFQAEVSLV


Legend:
VPAC2 receptor = molecular target: T1, VPAC2 receptor; assay: cell-based or functional assay
VPAC1 receptor = molecular target: T2, VPAC1 receptor; assay: cell-based or functional assay

Binder	EC50 vpac2 (Molar), cell-based cAMP assay (VPAC2 receptor)	EC 50 vpac1 (Molar), cell-based cAMP assay (VPAC1 receptor)
Ac-H[Aib]DA[β3hV]FTENYTKLRKQLAA[APC]KY[ACPC]NDL[β3hK]KG[βAla]T (not fully specified (C-terminus); printed as Ac-HBDAvFTENYTKLRKQLAAzKYxNDLkKGgT) [LBT-V205]	0.816 nM	> 1000 nM
Ac-HSDAVFTENYTKLRKQLA[ACPC]KKY[ACPC]ND[β3hL]KKG[βAla]T (not fully specified (C-terminus); printed as Ac-HSDAVFTENYTKLRKQLAxKKYxNDlKKGgT) [LBT-V201]	104 nM	9.09 nM
Ac-H[ACPC]DA[ACPC]FTE[ACPC]YTKLRKQLAA[APC]KY[ACPC]NDL[β3hK]KG[βAla]T (not fully specified (C-terminus); printed as Ac-HxDAxFTExYTKLRKQLAAzKYxNDLkKGgT) [LBT-V209]	5.58 nM	> 1000 nM
Ac-H[ACPC]DA[β3hV]FTENYTKLRKQLAA[APC]KY[ACPC]NDL[β3hK]KG[βAla]T (not fully specified (C-terminus); printed as Ac-HxDAvFTENYTKLRKQLAAzKYxNDLkKGgT) [LBT-V210]	0.859 nM	1420 nM
Ac-H[ACPC]DA[β3hV]FTENYTKLRKQ[β3hL]AA[APC]KY[ACPC]NDL[β3hK]KG[βAla]T (not fully specified (C-terminus); printed as Ac-HxDAvFTENYTKLRKQlAAzKYxNDLkKGgT) [LBT-V211]	1.26 nM	> 1000 nM
Ac-H[ACPC]DA[ACPC]FTENYTKLRKQLAA[APC]KY[ACPC]NDL[β3hK]KG[βAla]T (not fully specified (C-terminus); printed as Ac-HxDAxFTENYTKLRKQLAAzKYxNDLkKGgT) [LBT-V208]	0.646 nM	133 nM
Ac-H[Aib]DA[β3hV]FTE[β3hN]YTKLRKQLAA[APC]KY[ACPC]NDL[β3hK]KG[βAla]T (not fully specified (C-terminus); printed as Ac-HBDAvFTEnYTKLRKQLAAzKYxNDLkKGgT) [LBT-V206]	3.47 nM	> 1000 nM
Ac-H[ACPC]DA[β3hV]FTENYTKLRK[β3hQ]LAA[APC]KY[ACPC]NDL[β3hK]KG[βAla]T (not fully specified (C-terminus); printed as Ac-HxDAvFTENYTKLRKqLAAzKYxNDLkKGgT) [LBT-V212]	3.52 nM	1530 nM
Ac-H[ACPC]DAVFTENYTKLRKQLAA[APC]KY[ACPC]NDL[β3hK]KG[βAla]T (not fully specified (C-terminus); printed as Ac-HxDAVFTENYTKLRKQLAAzKYxNDLkKGgT) [LBT-V207]	0.593 nM	> 1000 nM
Ac-H[ACPC]DA[β3hV]FTENYTKLR[β3hK]QLAA[APC]KY[ACPC]NDL[β3hK]KG[βAla]T (not fully specified (C-terminus); printed as Ac-HxDAvFTENYTKLRkQLAAzKYxNDLkKGgT) [LBT-V213]	1.27 nM	293 nM
